What was measured:
[1] = molecular target: Secreted protein, acidic and rich in cysteine (SPARC) (UniProt P09486); experiment: SPR; BIAcore X; SPARC immobilised on CM5 chip (3574 RU); growth factors as analytes in HBS-EP (10 mM HEPES, 150 mM NaCl, 0.005% Surfactant P20, pH 7.4), 37 °C, 20 µL/min, 105 s association, 120 s dissociation
[2] = molecular target: Recombinant murine globular adiponectin (murine); experiment: SPR; BIAcore X; globular adiponectin immobilised on CM5 chip (12707 RU); growth factors as analytes in HBS-EP pH 7.4, 37 °C, 20 µL/min, 105 s association, 120 s dissociation
[3] = molecular target: T1, Recombinant murine full-length adiponectin (murine, UniProt Q60994 18-247); experiment: SPR; BIAcore X; full length adiponectin immobilised on CM5 chip (2025 RU); growth factors as analytes in HBS-EP pH 7.4, 37 °C, 20 µL/min, 105 s association, 120 s dissociation; details: both partners purified
T1 construct: also called fADPN; source: bought: Biovender Laboratory Medicine, Inc
T1 sequence (looked up): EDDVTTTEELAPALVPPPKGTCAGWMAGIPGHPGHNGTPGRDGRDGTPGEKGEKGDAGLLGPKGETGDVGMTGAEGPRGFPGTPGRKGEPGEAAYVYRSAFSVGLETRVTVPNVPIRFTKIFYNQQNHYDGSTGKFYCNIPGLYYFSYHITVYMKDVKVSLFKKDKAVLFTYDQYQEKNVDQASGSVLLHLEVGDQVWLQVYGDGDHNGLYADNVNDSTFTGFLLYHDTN

Sequence of Secreted protein, acidic and rich in cysteine (SPARC) (P09486 18-303): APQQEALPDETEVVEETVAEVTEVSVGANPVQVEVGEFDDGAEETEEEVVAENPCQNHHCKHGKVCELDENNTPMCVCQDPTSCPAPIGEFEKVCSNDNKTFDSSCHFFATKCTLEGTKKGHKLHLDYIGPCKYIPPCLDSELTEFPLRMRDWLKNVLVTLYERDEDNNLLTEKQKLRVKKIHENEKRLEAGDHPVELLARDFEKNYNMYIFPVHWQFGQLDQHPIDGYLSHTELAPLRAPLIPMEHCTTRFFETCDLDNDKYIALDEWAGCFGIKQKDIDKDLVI

Recombinant human basic fibroblast growth factor (FGF2) (from UniProt P09038 143-288) (ligand)
Kd [1]: 14400 nM | koff [1]: 0.00195 s⁻¹ | kon [1]: 135 M⁻¹ s⁻¹

Recombinant human vascular endothelial growth factor VEGF-165 (ligand)
Kd [1]: 54.4 nM | koff [1]: 0.00413 s⁻¹ | kon [1]: 75800 M⁻¹ s⁻¹

Recombinant human transforming growth factor β1 (TGFβ1) (from UniProt P01137 279-390) (ligand)
Kd [1]: 24300 nM | koff [1]: 0.0192 s⁻¹ | kon [1]: 790 M⁻¹ s⁻¹

B1: Recombinant human platelet-derived growth factor-BB (PDGF-BB) (ligand, UniProt P01127 82-190, looked up)
chain: SLGSLTIAEPAMIAECKTRTEVFEISRRLIDRTNANFLVWPPCVEVQRCSGCCNNRNVQCRPTQVQLRPVQVRKIEIVRKKPIFKKATVTLEDHLACKCETVAAARPVT
notes: PDGF B chain, human, recombinant; The two copies follow from the printed name BB; source: bought: Wako Pure Chemical
Kd [2]: 70.4 nM | koff [2]: 0.00738 s⁻¹ | kon [2]: 105000 M⁻¹ s⁻¹ | Kd [3]: 24.5 nM | koff [3]: 2.82e-05 s⁻¹ | kon [3]: 1150 M⁻¹ s⁻¹ | Kd [1]: 24.3 nM | koff [1]: 0.000903 s⁻¹ | kon [1]: 37100 M⁻¹ s⁻¹

B2: Nerve growth factor β (NGFβ) from mouse submaxillary glands (ligand, UniProt P01139 122-241, looked up)
chain: SSTHPVFHMGEFSVCDSVSVWVGDKTTATDIKGKEVTVLAEVNINNSVFRQYFFETKCRASNPVESGCRGIDSKHWNSYCTTTHTFVKALTTDEKQAAWRFIRIDTACVCVLSRKATRRG
notes: beta-nerve growth factor, mouse, the beta chain from submaxillary glands; The same protein was also tested after boiling (denatured), as a control; source: from mouse submaxillary glands; bought: Alomone Labs
Kd [2]: 1260 nM | koff [2]: 0.0145 s⁻¹ | kon [2]: 11500 M⁻¹ s⁻¹ | Kd [3]: 103 nM | koff [3]: 0.00597 s⁻¹ | kon [3]: 57600 M⁻¹ s⁻¹ | Kd [1]: 59.4 nM | koff [1]: 0.011 s⁻¹ | kon [1]: 186000 M⁻¹ s⁻¹

Source: PMC6479836, “Interaction of Nerve Growth Factor β with Adiponectin and SPARC Oppositely Modulates its Biological Activity” (International Journal of Molecular Sciences, 2019)
